± gives the standard deviation of the averaged measurements.
Experiment: total protein half-life in vivo (active degradation + dilution); higher = more stable protein
[1] = E. coli NCM3722 delta-clpP delta-lon delta-hslV, growth: N-lim chemostat, doubling time 6 h
[2] = E. coli NCM3722 delta-clpP, growth: N-lim chemostat, doubling time 6 h
[3] = E. coli NCM3722 delta-hslV, growth: N-lim chemostat, doubling time 6 h
[4] = E. coli NCM3722 delta-lon, growth: N-lim chemostat, doubling time 6 h
[5] = E. coli NCM3722 delta-smpB, growth: N-lim chemostat, doubling time 6 h
[6] = wild type E. coli NCM3722, growth: C-lim chemostat, doubling time 3 h
[7] = wild type E. coli NCM3722, growth: C-lim chemostat, doubling time 6 h
[8] = wild type E. coli NCM3722, growth: C-lim chemostat, doubling time 12 h
[9] = wild type E. coli NCM3722, growth: N-lim chemostat, doubling time 6 h
[10] = wild type E. coli NCM3722, growth: N-lim chemostat, doubling time 12 h
[11] = wild type E. coli NCM3722, growth: P-lim chemostat, doubling time 6 h
[12] = wild type E. coli NCM3722, growth: P-lim chemostat, doubling time 12 h

Sequence	total protein half-life in vivo [1]	total protein half-life in vivo [2]	total protein half-life in vivo [3]	total protein half-life in vivo [4]	total protein half-life in vivo [5]	total protein half-life in vivo [6]	total protein half-life in vivo [7]	total protein half-life in vivo [8]	total protein half-life in vivo [9]	total protein half-life in vivo [10]	total protein half-life in vivo [11]	total protein half-life in vivo [12]
MFSIQQPLLVFSDLDGTLLDSHSYDWQPAAPWLTRLREANVPVILCSSKTSAEMLYLQKTLGLQGLPLIAENGAVIQLAEQWQEIDGFPRIISGISHGEISLVLNTLREKEHFKFTTFDDVDDATIAEWTGLSRSQAALTQLHEASVTLIWRDSDERMAQFTARLNELGLQFMQGARFWHVLDASAGKDQAANWIIATYQQLSGKRPTTLGLGDGPNDAPLLEVMDYAVIVKGLNREGVHLHDEDPARVWRTQREGPEGWREGLDHFFSAR	4.98 ± 0.28 h	4.08 ± 0.42 h	4.17 ± 0.055 h	4.3 ± 0.26 h	3.73 ± 0.22 h	2.87 ± 0.076 h	5.25 ± 0.12 h	8.64 ± 0.059 h	4.167 ± 0.036 h	6.751 ± 0.019 h	5.43 ± 0.42 h	10.5 ± 0.14 h
MLKTIQDKARHRTRPLWAWLKLLWQRIDEDNMTTLAGNLAYVSLLSLVPLVAVVFALFAAFPMFSDVSIQLRHFIFANFLPATGDVIQRYIEQFVANSNKMTAVGACGLIVTALLLMYSIDSALNTIWRSKRARPKIYSFAVYWMILTLGPLLAGASLAISSYLLSLRWASDLNTVIDNVLRIFPLLLSWISFWLLYSIVPTIRVPNRDAIVGAFVAALLFEAGKKGFALYITMFPSYQLIYGVLAVIPILFVWVYWTWCIVLLGAEITVTLGEYRKLKQAAEQEEDDEP [P0A8K8]					4.46 h	> 4 h			7.67 h			> 16 h
MRTVLNILNFVLGGFATTLGWLLATLVSIVLIFTLPLTRSCWEITKLSLVPYGNEAIHVDELNPAGKNVLLNTGGTVLNIFWLIFFGWWLCLMHIATGIAQCISIIGIPVGIANFKIAAIALWPVGRRVVSVETAQAAREANARRRFE [P0AB12]	6.35 ± 0.66 h	6.3 ± 0.72 h	5.92 ± 0.069 h	5.93 ± 0.27 h	6.1 ± 0.31 h	2.89 ± 0.29 h	6.33 ± 0.089 h	12.5 ± 1 h	6.72 ± 1.3 h	12.3 ± 3.2 h	5.98 ± 0.26 h	12 ± 0.12 h
MAGNTIGQLFRVTTFGESHGLALGCIVDGVPPGIPLTEADLQHDLDRRRPGTSRYTTQRREPDQVKILSGVFEGVTTGTSIGLLIENTDQRSQDYSAIKDVFRPGHADYTYEQKYGLRDYRGGGRSSARETAMRVAAGAIAKKYLAEKFGIEIRGCLTQMGDIPLDIKDWSQVEQNPFFCPDPDKIDALDELMRALKKEGDSIGAKVTVVASGVPAGLGEPVFDRLDADIAHALMSINAVKGVEIGDGFDVVALRGSQNRDEITKDGFQSNHAGGILGGISSGQQIIAHMALKPTSSITVPGRTINRFGEEVEMITKGRHDPCVGIRAVPIAEAMLAIVLMDHLLRQRAQNADVKTDIPRW	5.73 ± 0.43 h	5.29 ± 0.1 h	5.199 ± 0.021 h		4.78 ± 0.14 h	3.41 ± 0.23 h	5.92 ± 0.13 h	12 ± 0.84 h	5.09 ± 0.23 h	9.61 ± 0.79 h	6.51 ± 0.34 h	12.6 ± 1.4 h
MIKQRTLKRIVQATGVGLHTGKKVTLTLRPAPANTGVIYRRTDLNPPVDFPADAKSVRDTMLCTCLVNEHDVRISTVEHLNAALAGLGIDNIVIEVNAPEIPIMDGSAAPFVYLLLDAGIDELNCAKKFVRIKETVRVEDGDKWAEFKPYNGFSLDFTIDFNHPAIDSSNQRYAMNFSADAFMRQISRARTFGFMRDIEYLQSRGLCLGGSFDCAIVVDDYRVLNEDGLRFEDEFVRHKMLDAIGDLFMCGHNIIGAFTAYKSGHALNNKLLQAVLAKQEAWEYVTFQDDAELPLAFKAPSAVLA [P0A725]	2.8 ± 0.28 h	0.889 ± 0.17 h	0.979 ± 0.33 h	1.03 ± 0.011 h	0.639 ± 0.021 h	0.467 ± 0.1 h	0.861 ± 0.11 h	1.1 ± 0.33 h	0.978 ± 0.12 h	1.43 ± 0.28 h	1.06 ± 0.19 h	2.1 ± 0.78 h
MTNQPTEIAIVGGGMVGGALALGLAQHGFAVTVIEHAEPAPFVADSQPDVRISAISAASVSLLKGLGVWDAVQAMRCHPYRRLETWEWETAHVVFDAAELKLPLLGYMVENTVLQQALWQALEAHPKVTLRVPGSLIALHRHDDLQELELKGGEVIRAKLVIGADGANSQVRQMAGIGVHAWQYAQSCMLISVQCENDPGDSTWQQFTPDGPRAFLPLFDNWASLVWYDSPARIRQLQNMNMAQLQAEIAKHFPSRLGYVTPLAAGAFPLTRRHALQYVQPGLALVGDAAHTIHPLAGQGVNLGYRDVDALIDVLVNARSYGEAWASYPVLKRYQMRRMADNFIMQSGMDLFYAGFSNNLPPLRFMRNLGLMAAERAGVLKRQALKYALGL	4.44 ± 0.19 h	3.97 ± 0.055 h	4.09 ± 0.076 h	3.34 ± 0.071 h	3.93 ± 0.044 h	2.59 ± 0.043 h	4.352 ± 0.0069 h	7.53 ± 0.7 h	3.808 ± 0.035 h	7.16 ± 0.92 h	4.49 ± 0.16 h	7.66 ± 0.16 h
MVINCAFIGFGKSTTRYHLPYVLNRKDSWHVAHIFRRHAKPEEQAPIYSHIHFTSDLDEVLNDPDVKLVVVCTHADSHFEYAKRALEAGKNVLVEKPFTPTLAQAKELFALAKSKGLTVTPYQNRRFDSCFLTAKKAIESGKLGEIVEVESHFDYYRPVAETKPGLPQDGAFYGLGVHTMDQIISLFGRPDHVAYDIRSLRNKANPDDTFEAQLFYGDLKAIVKTSHLVKIDYPKFIVHGKKGSFIKYGIDQQETSLKANIMPGEPGFAADDSVGVLEYVNDEGVTVREEMKPEMGDYGRVYDALYQTITHGAPNYVKESEVLTNLEILERGFEQASPSTVTLAK	5.85 ± 0.38 h	4.79 ± 0.2 h	5.38 ± 0.92 h	4.78 ± 0.095 h	4.91 ± 0.26 h	3.04 ± 0.12 h	5.58 ± 0.54 h	11.6 ± 0.32 h	4.75 ± 0.06 h	8.63 ± 0.17 h	5.842 ± 0.057 h	12.3 ± 1.1 h

Reference: the supplement of paper PMC11246515
